From the nanobody polyreactivity screen of Harvey et al. (2022)

Assay: yeast display, Sf9 membrane polyspecificity reagent, FACS + sequencing; frameworks hold sequencing errors
How it was run: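 Sorting gates, low and high (top ~1%), were placed on anti-HA fluorescence to track expression and on streptavidin fluorescence to track reagent binding. A clone's polyreactivity label is taken from the gate it came out of. The reagent was 10% biotinylated, detergent-solubilized Sf9 membrane, applied for 1 hour at 4 °C to galactose-induced yeast display cells.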

QVQLVESGGGLVQAGGSLRLSFAASGRTFGKNAMGWYRQAPGKEREFVAAITSRGGSTYYADSVKGRFTISRDNAKNTVYLQMNSLKPEDTAVYYCNREYKRPSQRTEHYYWGQGTQVTVSS
polyreactivity (PSR sort gate): low polyreactivity

QVQLVESGGGLVQAGGSLRLSWAASGRTFDYNAMGWYRQAPGKERELVAAITSSGGSTYYADSVKGRFTISRDNAKNTVYLQMNSLKPEDTAVYYCDTDGQSPYYIYYWGQGTQVTVSS
polyreactivity (PSR sort gate): low polyreactivity

QVQLVQSGGGLVQAGGSLRLSCAASGRTFYRNGMGWYREAPGKDREFVAAINYRGGSTNYADSVKGRFTITRDNAKITVYLQMNSLKPEDTAVYYCATRIFRAALRFDYWGQGTQVTVSS
polyreactivity (PSR sort gate): high polyreactivity

QVQLVESGGGLVQAGGSLRIRCAASGSTFKTYTMGWYRQAPGKERELVAGITSGGSTSYADSVKGRFTISRDNAKNTVYLQMNSLKPEVTAVYYCAAAEGGGLVTYDYCGQGTQVTVSS
polyreactivity (PSR sort gate): low polyreactivity

QVQLVESGGGLVQAGGSLRLSCAPSGSIFIYYAMGWYRPAPGKERELVAAINIGGSTYYADSVKGRFTISRDNAKNSVYLQMKSLKPEDTAVYYCNAATWYRVYPYYIIYDYWGQGTQVTVSS
polyreactivity (PSR sort gate): low polyreactivity

QVQLVESGGGLVQAGGSLRLSCAASGYTFLRNAMGWYRQAPGKERELVAAISYSGGGTYYPDSVMGRFTISRDHAKNTVYLKMNSLKPEDTAVYYCNVAQRYYGNFFSSRYESWGQGTQVTVSS
polyreactivity (PSR sort gate): low polyreactivity

QVQLVESGGGLVQAGGSLRLSCAASGIIFALYAMGWYRQAPGKERELVATITYSGGSTYYADSVKGRFTISRDNAKNTVYLQMNSLKPEDSAVYYCNRDQWPWESGYAYNYWGQGTQVTVSS
polyreactivity (PSR sort gate): low polyreactivity

QVQLVESGGGLVQAGGSLRLSCAASGGTLFTNAMGWYRQAPGKERELVAAISWRGGRTYYADSVKGRFTISRDNAKNTVYLQMNSLKPEDTAVYYCAAASAAGYDYWGQGTQVTVSS
polyreactivity (PSR sort gate): low polyreactivity

QVQLVESGGGLVQAGGSLRLSCAASGFTFWHYAMGWYRQAPGKERELVAAITWDGGSTYYADSVKGRFTISRDNAKNTFYLQMQSLKPEDNAVYYCAKLFGGTYYEYDYWGQGTQVTVSS
polyreactivity (PSR sort gate): low polyreactivity

QVQLVESGGGLVQAGGCLRLSCAASGRIFYANTMGWYRQAPGIEWELVASMYGAVGTYADSVKGRFTISRDKAKNTVSLQMNSLKPEDTAVYYCNAYLTRPVEEYLWDGYYYWGQGTQVTVSA
polyreactivity (PSR sort gate): low polyreactivity

QVQLVESGGGLVQAGGSLRLSCAASGSIFAAYTMGWYRQAPGKERELVAAISVSTVSTYYADSVKGRFTISRDNAKNTVYLQMYSLKPEDTAVDYCNADATDSYPEKDEHDSWGQGTQVTVSS
polyreactivity (PSR sort gate): low polyreactivity

QVQLVESGGGLVQAGGRLRLSCAASGSTFYLNAMGWYRQAPGKERELVAAISSGGRTYYADSVKGRFTISRDNAKNTVYLQMTSLKPEDTAVYYCNAVRYLRGAYNYWGQGTQVTVSS
polyreactivity (PSR sort gate): high polyreactivity

QVQLVESGGGLVQAGGSLRLSCAASGSIFRVYAMRWYRQAPGKERELVAAISKSGSSTYYADSVKGRFTISRDNAKNTVYLQMNSLKPEDTAVYYCAARRVLGEYGYWGQGTQVTVSS
polyreactivity (PSR sort gate): high polyreactivity

QVQLVESGGGLVQAGGSLRLSCAASGRTSIPYARGWYRQAPGKERELVAAISYSVGRTYYADSVKGRFTISRDNAKNTVYLQMNSLKPEDTAVYYCAAEYNGVVRDYDYWGQGTQVTVSS
polyreactivity (PSR sort gate): low polyreactivity

QFQLVESVGGLVQAGGSLRLSCAASGITFPANAMGWYRQAPGKERELVAAISSSGGSTYYADSVKGRFTISRDNAKNTVYLQMNSLKPEDTAVYYCAAYYGPSRSLYYYWGQGTQVTVSS
polyreactivity (PSR sort gate): high polyreactivity

QVQLVESGGGLVQAGGSLRLSCAASGRIFKSYVMGWYRQAPGKERELVAAISITGGSTYYADSVKGRFTISRDNAKNTVYLQMNSLKPEDTAVYYCAAGRSGQEDDYWGQGTQVTVSS
polyreactivity (PSR sort gate): high polyreactivity

QVQLLESCGGLVQAGGSLRLSCAASGRIFSYYVMGWYRQAPGKERELVAAITSGGSTNYADSVKGRFTISRDNAKISVYLQLTSLKPVDTAVYYFNRAYTYINRLYGYWGQGTEVTVSS
polyreactivity (PSR sort gate): high polyreactivity

QVQLVESGGGLVQAGGSLRLSCAASGSIFYVNAMGWYRQAPGKERELVAAISVRGGRTYYADSVKGRFTISRDNAKNTVYLQMNILNPEDTAVYYCATRISTVGRYDYWGEGTQVTVSS
polyreactivity (PSR sort gate): high polyreactivity

QVQLVESCGGLVQAGGSLRLSCAASGRTFGYYAMGWYRQAPGNERELVAAISRGGRTNYADSVKGRFTISRDNAKNTVYLQMNSLKPEDTAVYYCAKSGTIPRYTASYSLLDYWGPGTQVTVSS
polyreactivity (PSR sort gate): low polyreactivity

QVQLVESGGGLGQAGGSLRLSCAASGRTFAAYAMGWYRQAPGKERELVAAISAGDGTNYADSVKGRFTISRVNAQNTVYLQMNSLKPEDTAVYYCAAVGPLFWPYYSYRRGYDYWGQGTQVTVSS
polyreactivity (PSR sort gate): low polyreactivity

QVQLVESGGGLVQAGGSLRLSCAASGSTFRYYAMGWYRQAPGKERELVAAISGSGGRTYYADSVKGRFTISRDNAKNTVYLQMNSLKPEDTAVYYCNTRGRRTDYDYWGQGTQVTVSS
polyreactivity (PSR sort gate): high polyreactivity

QVQLVESGGGLVQAGGSLRLSCAASGSILVQNAMGWYRQAPGKERELVAVINSGDSTNYADSVKGRFTISRDNAKNTVFLQMNSLKPEDTAVYYCAVDDVSYYYLRAYNYELSWYGSGLDYWGQGTQVTVSS
polyreactivity (PSR sort gate): low polyreactivity

QVQLVESGGGLVQAGGSLRLSCAASGITSSRYAMGLYRQAPGKVRELVAAISSSGGSTYYADSVKGRFTSSRDNAKTTVYLQLISLKPEDTAVYYCNVVSTRLAKYTFGFWGQGTQVTVSS
polyreactivity (PSR sort gate): high polyreactivity

QVQLVESGGGLVQAGGSLRLSCAASGSTFQAYVMGWDRQAPGKERELVAAISRSGGSTYYADSVKGRFTISRDNAKNTVYLQLHSLKPEDTAVYYCAVDASRYGSTGHYGFYYWGQGTQVTVSS
polyreactivity (PSR sort gate): low polyreactivity

QVQLVESGGGLVQAGGSLRLSCAASGFTFDSYAMGWYRQAPGKERELVAAISYRGGTTYYADSVKGRFTISRDNAKNTVYLQMNSLKPEDTAVYYCATPYKYVTGEDYWGQGTQVTVSS
polyreactivity (PSR sort gate): high polyreactivity

QVQLVESVVGLVQAGLSLRLSSAASGSIFSGYMGWYRHAPGKERELVATITSGGSTYADSVKGRFTISRDNAKNTVYLQMNSLKPEDTAVYYCAADVSFYTSKYDYWGLGTQVTVSS
polyreactivity (PSR sort gate): low polyreactivity

QVQLVESGGCLVQAGGSLRLSCAASGGTFGPNAKGSYRQAPGKERELVAAISWTTGRTYADSVKGRFTISRDNAKNTVYLQMNSLKPEDTAVYYCATRAYRLDPLQHDYWGQGTQVTVSS
polyreactivity (PSR sort gate): low polyreactivity

QVQLVESGGGLVQAGGRLRLSCAASGNIFYYYAMGWYRQAPGKERELVADIRSSGRTNYADSVKGRFTISRDNATNTVYLQMNSLKPADTAVYYCATDKWYSYADKYDYWGQGTQVTVSS
polyreactivity (PSR sort gate): low polyreactivity

QVQLVESGGGLVQAGGSLRLSCAASGSIFAYYTMGWYRQAHGKERELVAAISRSGGSTNYADSVKGRFTISRDNAKNTVYLQMNSLKPEDTAVYYCAVRRYSRRLFGYYYWGQGTQVTVSS
polyreactivity (PSR sort gate): high polyreactivity

QVQLVESGGGLVQAGGSLRLTCAASGYTFYYAMGWYRQAPGKERELVAAITRGGSTYYADSVKGRFTISRDNAKNTVYLQMNSLKPEDTAVYYCATEYHAHYASRALYGYDHWGQGTQVTVSS
polyreactivity (PSR sort gate): low polyreactivity

QVQLVESGGGLVQAGGSLRLSCAASGSTFGGYAMGWYRPAPGKERELVAAISGGGRTYYADSVKGRFTISRDNAKNTVYLQMNSLKPADTAVYYCNAGYWFGYRLFTGYYWGQGTQVTVSS
polyreactivity (PSR sort gate): low polyreactivity

QVQLVESGGGLVQAGGSLRLSCAASGRIFGVYAMGWYRQAPGKERELVAAIYSGSSTYYADSVKGRFTISRDNAKNTVYLQMNSLKPEDTAVYYCAAVSRDDNYHDYYYWGQGTQVTVSS
polyreactivity (PSR sort gate): low polyreactivity

QVQLVESGGGLVQAGGSLRLSCAASGRTFDRYAMGWYRQAPGKERELVAAISRGGITYYADSVKERFTISRDNAKNTVYLQMNSLKPEDTAVYYCNAVRWADGDYWGQGTQVTVSS
polyreactivity (PSR sort gate): high polyreactivity

QVQLVESGGGLVQAGGSLRLSCAASGRTFRYYAMGWYRQAPGKEREFVASIRRGGGSTYYADSVKGRFTISRDNAKNTVYLQMNSLKPEDTAVYYCAAQPYTLSLFRLNYDYWGQGTQVTVSS
polyreactivity (PSR sort gate): low polyreactivity

QVQLVESGGGLVQAGGSLRLSCAASGGTFYRYAMGWYRQAPGKERELVAVISKRGGTTYYADSVKGRFTISRDNAKNTVYLQMNSLKPVDTAVYYCAVRAPQSYGYDYWGQGTQVTVSS
polyreactivity (PSR sort gate): high polyreactivity

QVQLVESGGGLVQAGGSLRLSCAASGRIFSRYAMGWYRQAPGKERELVAAINWSGGSTYYADSVKGRFTISRDNAKNTVYLQMNSLKPEDTAVYYCAADIYPLAIGAFRDDYWGQGTQVTVSS
polyreactivity (PSR sort gate): low polyreactivity

QVQLVESGGGLVQAGGSLRLSCAASGRTFDRYAMGWYRQAPGKERELVAAISSGTSTNYADSVKGRFTISRDNAKNTVSLQMNSLKPEDTAVYYCNVDSPLQPYRYYYWGQGTQVTVSS
polyreactivity (PSR sort gate): low polyreactivity

QVKLVESGGGLDKAGGSLRLSCAASGLIFYLYPKGWYRQAPGQERELVAAISRSGDTTYYADSVKGRFTISRDNAKNTVYLQMNSLKPEDTAVYYCAADDYYKFDYWGQGTQVTVSS
polyreactivity (PSR sort gate): low polyreactivity

QVQLVESGGGLVQAGGSLRVSCAASGFTFGPYDMGGSRQAPGKERELVAVIIGGDSTNYADSVKGRFTISRDNAKNTVYLQMNRLKPEDTAVYYCAADYIDRVGWMDYWGQGTQVTVSS
polyreactivity (PSR sort gate): low polyreactivity

QVQLVESGGGLVQAGGSLRLSCAASGLIFKSNAMGWYRQAPGKERELVAAITRTGGSTYYADSVKGRFTISRDNAKNTVYLQMNSLKPEDTAVYYCAKVVGRWRSSWELDYWGQGTQVTVSS
polyreactivity (PSR sort gate): high polyreactivity

QVQLVESGGGLVQAGGSLRLSCAASGFIFSRYAMGWYRQAPGKERELVAAISSRGGSTYYADSVKGRFTISRDNAKNTVYLQMNSLKPEDTAVYYCNVDPRYSLTPPMDYWGQGTQVTVSS
polyreactivity (PSR sort gate): high polyreactivity

QVQLVESGGGLVQAGGSLRLSCAASGRTFRGNDMGWYRQAPGKERELVAAISWSGGGTYYADSVKGRFTISRDNAKNTVYLQMNSLKPEDTAVYYCAADLPHFRYYYWGQGTQVTVSS
polyreactivity (PSR sort gate): low polyreactivity

QVQLVESGGGLVQAGGSLRISCAASAHIFDYNAMGWYRQAPGKERELVAAITSGGTTTYADSVKGRFTISRDNAKNTVDLQMNSLKPEDTAVYYCNTYGQTDTYWRYYYWGQGTQVTVSS
polyreactivity (PSR sort gate): high polyreactivity
